Results published in paper PMC7069958, “Multi-level and lineage-specific interactomes of the Hox transcription factor Ubx contribute to its functional specificity”.

Molecular target: mB*UbxN51A (UniProt P83949-2 1-380, N336A)
Experiment: EMSA; 20 mM HEPES pH 7.9, 1.4 mM MgCl2, 1 mM ZnSO4, 40 mM KCl, 0.1 mM EDTA, 5% glycerol, 0.2 ug poly(dI-dC), 0.1 ug BSA, 10 mM DTT, 0.1% NP40, 30 ul, 20 min; gel 6% acrylamide 0.5x TBE at 4 C
Conditions: protein: recombinant; tags: His, myc-BirA* (N-terminal fusion); label: 5'-Cy5; blunt

Sequence of mB*UbxN51A (P83949 other isoform, or with tags, fused parts or gaps N336A): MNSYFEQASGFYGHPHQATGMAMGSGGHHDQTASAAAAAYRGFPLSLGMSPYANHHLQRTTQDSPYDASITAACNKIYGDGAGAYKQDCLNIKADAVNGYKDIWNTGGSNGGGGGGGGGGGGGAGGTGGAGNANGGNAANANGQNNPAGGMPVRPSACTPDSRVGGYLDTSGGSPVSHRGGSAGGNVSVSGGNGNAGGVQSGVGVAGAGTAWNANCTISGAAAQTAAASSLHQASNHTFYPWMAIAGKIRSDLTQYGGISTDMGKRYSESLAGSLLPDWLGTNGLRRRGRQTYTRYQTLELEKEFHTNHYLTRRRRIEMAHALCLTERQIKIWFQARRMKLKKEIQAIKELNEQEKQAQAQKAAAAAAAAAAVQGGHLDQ

B1: Ubx consensus site probe (dsDNA)
DNA 1: TTCAGAGCGAATGATTTATGACCGGTCAAG
DNA 2: CTTGACCGGTCATAAATCATTCGCTCTGAA
binding result: no binding
